Measurements taken from publication PMC4286236.
Blank lines part the entries; values can stand above or below the substance they belong to.

What was measured:
Assay in all cases: AraTM assay
[1] = target: Danio rerio PlxnA3 TM + JM (amino acids 1241-1314) V1288F, AraTM construct (EP-PCR mutant); details: E. coli membranes; four replicates; read off a plot
[2] = target: Danio rerio PlxnA3 TM + JM (amino acids 1241-1314) M1281F, AraTM construct; details: E. coli membranes; minimum of eleven replicates over three experiments; read off a plot
[3] = target: Danio rerio PlxnA3 TM + JM (amino acids 1241-1314) L1274A, AraTM construct; details: E. coli membranes; minimum of eleven replicates over three experiments; read off a plot
[4] = target: Danio rerio PlxnA3 TM + JM (amino acids 1241-1314) L1277F, AraTM construct; details: E. coli membranes; minimum of eleven replicates over three experiments; read off a plot
[5] = target: Danio rerio PlxnA3 TM + JM (amino acids 1241-1314) D1302Y, AraTM construct (EP-PCR mutant); details: E. coli membranes; four replicates; read off a plot
[6] = target: Danio rerio PlxnA3 TM + JM (amino acids 1241-1314) M1281T, AraTM construct; details: E. coli membranes; minimum of eleven replicates over three experiments; read off a plot
[7] = target: Danio rerio PlxnA3 TM + JM (amino acids 1241-1314) L1284A, AraTM construct; details: E. coli membranes; minimum of eleven replicates over three experiments; read off a plot
[8] = target: Danio rerio PlxnA3 TM + JM (amino acids 1241-1314) M1281L, AraTM construct; details: E. coli membranes; minimum of eleven replicates over three experiments; read off a plot

Substance: Danio rerio PlxnA3 TM + JM (amino acids 1241-1314), wild type, AraTM construct L1274A
other: % change in AraTM fluorescence/absorbance from WT (% change from WT) [3]: -1

Substance: Danio rerio PlxnA3 TM + JM (amino acids 1241-1314), wild type, AraTM construct L1277F
other: % change in AraTM fluorescence/absorbance from WT (% change from WT) [4]: -2.3

Substance: Danio rerio PlxnA3 TM + JM (amino acids 1241-1314), wild type, AraTM construct D1302Y
other: % change in AraTM fluorescence/absorbance from WT (% change from WT) [5]: 85

Substance: Danio rerio PlxnA3 TM + JM (amino acids 1241-1314), wild type, AraTM construct L1284A
other: % change in AraTM fluorescence/absorbance from WT (% change from WT) [7]: -7.6

Substance: Danio rerio PlxnA3 TM + JM (amino acids 1241-1314), wild type, AraTM construct M1281L
other: % change in AraTM fluorescence/absorbance from WT (% change from WT) [8]: 23

Further lines, results first:

other: % change in AraTM fluorescence/absorbance from WT (% change from WT) [1]: 25
Substance: Danio rerio PlxnA3 TM + JM (amino acids 1241-1314), wild type, AraTM construct V1288F

other: % change in AraTM fluorescence/absorbance from WT (% change from WT) [2]: -7.2
Substance: Danio rerio PlxnA3 TM + JM (amino acids 1241-1314), wild type, AraTM construct M1281F

other: % change in AraTM fluorescence/absorbance from WT (% change from WT) [6]: -12
Substance: Danio rerio PlxnA3 TM + JM (amino acids 1241-1314), wild type, AraTM construct M1281T
